Results on four substances are retold here after patent US6849441.

For the assay, the target named is protease TCES (hyperthermostable protease derived from Thermococcus celer), enzyme preparation (Thermococcus celer). The assay is described as follows: cell-based or functional assay.
Chain of protease TCES (hyperthermostable protease derived from Thermococcus celer), enzyme preparation (Thermococcus celer) (chain, as listed by the source limits assumed): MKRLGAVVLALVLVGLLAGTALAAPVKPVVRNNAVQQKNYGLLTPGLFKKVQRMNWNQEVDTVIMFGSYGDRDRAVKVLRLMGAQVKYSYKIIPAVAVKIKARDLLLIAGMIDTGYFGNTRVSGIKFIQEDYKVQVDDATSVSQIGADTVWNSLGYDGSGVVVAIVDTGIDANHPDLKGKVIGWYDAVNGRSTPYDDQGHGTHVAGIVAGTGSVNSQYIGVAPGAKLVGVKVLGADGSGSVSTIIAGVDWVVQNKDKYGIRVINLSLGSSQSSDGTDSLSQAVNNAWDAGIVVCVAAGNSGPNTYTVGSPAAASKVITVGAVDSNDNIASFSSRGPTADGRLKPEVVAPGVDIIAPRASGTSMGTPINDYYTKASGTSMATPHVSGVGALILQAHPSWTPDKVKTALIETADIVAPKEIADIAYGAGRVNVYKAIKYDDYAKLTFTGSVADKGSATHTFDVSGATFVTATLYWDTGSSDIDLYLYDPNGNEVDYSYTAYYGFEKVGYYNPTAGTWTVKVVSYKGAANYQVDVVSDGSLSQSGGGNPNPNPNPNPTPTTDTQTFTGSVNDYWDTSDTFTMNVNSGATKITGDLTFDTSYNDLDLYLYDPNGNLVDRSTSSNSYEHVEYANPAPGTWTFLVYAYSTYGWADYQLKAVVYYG
Take Leupeptin (peptide): the enzyme activity compared with control without reagent, after treatment at 37° C. for 30 minutes with 1 mM reagent came to 104%.
Pepstatin (peptide): the enzyme activity compared with control without reagent, after treatment at 37° C. for 30 minutes with 1 mM reagent stood at 105%.
In the case of Chymostatin (peptide) it was 0%.
Antipain (peptide): the enzyme activity compared with control without reagent, after treatment at 37° C. for 30 minutes with 1 mM reagent worked out at 19%.
